Measured values published in publication PMC7316485, “Secretion of Recombinant Interleukin-22 by Engineered Lactobacillus reuteri Reduces Fatty Liver Disease in a Mouse Model of Diet-Induced Obesity” (mSphere, 2020).

B1: murine interleukin-22 with C-terminal 3x FLAG tag, without signal peptide (IL-22:3X FLAG, pVPL31125) (natural protein, mouse, UniProt Q9JJY9 34-179, looked up)
chain: LPVNTRCKLEVSNFQQPYIVNRTFMLAKEASLADNNTDVRLIGEKLFRGVSAKDQCYLMKQVLNFTLEDVLLPQSDRFQPYMQEVVPFLTKLSNQLSSCHISGDDQNIQKNVRRLKETVKKLGESGEIKAIGELDLLFMSLRNACV
notes: also called mIL-22; source: L. reuteri VPL31125 (accumulates mIL-22 intracellularly), total lysate; not shown: 3x FLAG, C-terminal, kept
B2: murine interleukin-22 with C-terminal 3x FLAG tag, cleaved from the fusion with a Lactobacillus reuteri signal peptide (SP:IL-22:3X FLAG, pVPL3776) (natural protein, mouse, UniProt Q9JJY9 34-179, looked up)
chain: B1 chain
notes: the rest kept the signal peptide; also called mIL-22; mature mIL-22; source: L. reuteri VPL3778 (engineered to secrete mIL-22), protein precipitated from culture supernatant; not shown: 3x FLAG, C-terminal, kept

Target: the molecule itself
Test: migration on a gel, Western blot; FLAG-tagged mIL-22 from L. reuteri grown in LDM3 at 37°C to OD600 3.5; total lysate (VPL31125) or protein precipitated from culture supernatant (VPL3778); samples prepared as in ref. 14; gel conditions not told

Protein	stoichiometry N
B1	4
B2	4
